Results from paper PMC9007350, “Aurintricarboxylic acid is a canonical disruptor of the TAZ-TEAD transcriptional complex” (PLoS ONE, 2022).
Ends that are not written are not given here.

Legend:
Assay in all cases: fluorescence polarisation; TEAD4 (217-434) at 350 nM, carboxyfluorescein peptide probe at 25 nM; disruptors titrated 0-150 uM to the probe-TEAD complex; 25 C, 20 min
Settings in all cases: both partners purified
[1] = biological target: YAP/TAZ-binding domain of human TEAD4 (217-434), acylation state not stated (human, UniProt Q15561 217-434)
[2] = biological target: T1, YAP/TAZ-binding domain of human TEAD4 (217-434), acylated form (human, UniProt Q15561 217-434, acylated)
T1 construct: also called acylated TEAD

[3] = biological target: T2, YAP/TAZ-binding domain of human TEAD4 (217-434), deacylated form (human, UniProt Q15561 217-434)
T2 construct: also called deacylated TEAD
T2 sequence (Q15561 217-434): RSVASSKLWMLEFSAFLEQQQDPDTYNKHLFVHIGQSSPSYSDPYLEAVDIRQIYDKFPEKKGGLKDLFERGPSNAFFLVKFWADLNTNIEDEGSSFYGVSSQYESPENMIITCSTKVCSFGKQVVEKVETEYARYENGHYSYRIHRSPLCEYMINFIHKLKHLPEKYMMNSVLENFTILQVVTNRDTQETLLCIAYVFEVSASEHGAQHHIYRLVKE

YAP/TAZ-binding domain of human TEAD4 (217-434), acylation state not stated, sequence (Q15561 217-434): as above
T1 sequence (Q15561 217-434): as above

| binding result [1] | binding result [2] | binding result [3] | Binder |
| --- | --- | --- | --- |
| binds |  |  | SETDLEALFNAVMNPKTANVPQTVPMRLRKLPDSFFKPPE (peptide, UniProt P46937 61-100, looked up, carboxyfluorescein label (position not given), human YAP (Yes-associated protein) residues 61-100; also called YAP peptide probe) [Human YAP (61-100) peptide probe, carboxyfluorescein-labelled] |
|  | binds | binds | DLDTDLEALFNSVMNPKPSSWRKKILPESFFKEPD (peptide, UniProt Q9GZV5 23-57, looked up, carboxyfluorescein label (position not given), human TAZ residues 23-57, UniProt Q9GZV5; also called TAZ peptide probe; TAZ probe) [Human TAZ (23-57) peptide probe, carboxyfluorescein-labelled] |
| binds |  |  | GSVIFTYFEGDINSMVDEHFSRALRN (peptide, UniProt Q99NC0 26-51, looked up, also: carboxyfluorescein label, position not given here, mouse Vgll1 residues 26-51; also called Vgll1 peptide probe) [Mouse Vgll1 (26-51) peptide probe, carboxyfluorescein-labelled] |
